Results: the supplement of paper PMC10567573

B1: MYBL2 (parent)
chain: VKKSCWTEEEDRIICEAHKVLGNR
B2: SETD8 (parent)
chain: GKQAPRKKAQGKTQQNRKLTDFYP

Variants of: B1
Experiment: protein stability index of a GFP-peptide fusion (GPS, HEK-293T) (PSI 1-6); higher = more stable
Conditions: c terminus: a fixed tail appended
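Further: lentivirally expressed fusions sorted by FACS into six bins by GFP to DsRed ratio, PSI derived from sequencing read proportions per bin multiplied by bin number.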

Compared with VKKSCWTEEEDRIICEAHYVLGNR [K19Y], VKKSCWTEEEDRIICEAHCVLGNR [K19C] is higher in protein stability index: 2.59 for the first, 3.3 for the second.

Going from VKKSCWTEEEDRIICEAHGVLGNR [K19G] to VKKSCWTEEEDRIICEAHWVLGNR [K19W], the protein stability index falls from 3.67 to 1.91.

Going from VKKSCWTEEEDRIICEAHKMLGNR [V20M] to VKKSCWTEEEDRIICEAHKRLGNR [V20R], the protein stability index rises from 3.15 to 3.59.

Going from VKKSCWTEEEDRIICEAHKLLGNR [V20L] to VKKSCWTEEEDRIICEAHKDLGNR [V20D], the protein stability index rises from 3.15 to 4.37.

Compared with VKKSCWTEEEDRIICEAHKFLGNR [V20F], VKKSCWTEEEDRIICEAHKWLGNR [V20W] is lower in protein stability index: 2.86 for the first, 2.04 for the second.

First: VKKSCWTEEEDRIICEAHKHLGNR [V20H]
Second: VKKSCWTEEEDRIICEAHKKLGNR [V20K]
The protein stability index of the first is lower: 2.55 for the first, 3.67 for the second.

Compared with VKKSCWTEEEDRIICEAHKILGNR [V20I], VKKSCWTEEEDRIICEAHKNLGNR [V20N] is higher in protein stability index: 2.75 for the first, 3.99 for the second.

Compared with VKKSCWTEEEDRIICEAHKPLGNR [V20P], VKKSCWTEEEDRIICEAHKELGNR [V20E] is higher in protein stability index: 3.72 for the first, 4.03 for the second.

First: VKKSCWTEEEDRIICEAHKYLGNR [V20Y]
Second: VKKSCWTEEEDRIICEAHKGLGNR [V20G]
The protein stability index of the first is lower: 3.12 for the first, 3.67 for the second.

First: VKKSCWTEEEDRIICEAHKTLGNR [V20T]
Second: VKKSCWTEEEDRIICEAHKSLGNR [V20S]
The protein stability index of the first is lower: 3.34 for the first, 3.55 for the second.

First: VKKSCWTEEEDRIICEAHKCLGNR [V20C]
Second: VKKSCWTEEEDRIICEAHKQLGNR [V20Q]
The protein stability index of the first is lower: 3.84 for the first, 4.5 for the second.

VKKSCWTEEEDRIICEAHKALGNR [V20A] showed a protein stability index of 3.51.

Variants of: B2
Experiment: as above
Conditions: c terminus: a fixed tail appended

First: GVQAPRKKAQGKTQQNRKLTDFYP [K2V]
Second: GGQAPRKKAQGKTQQNRKLTDFYP [K2G]
The protein stability index of the first is higher: 3.99 for the first, 2.67 for the second.

Going from GAQAPRKKAQGKTQQNRKLTDFYP [K2A] to GCQAPRKKAQGKTQQNRKLTDFYP [K2C], the protein stability index falls from 3.09 to 2.92.

Compared with GFQAPRKKAQGKTQQNRKLTDFYP [K2F], GYQAPRKKAQGKTQQNRKLTDFYP [K2Y] is lower in protein stability index: 3.34 for the first, 2.95 for the second.

Compared with GLQAPRKKAQGKTQQNRKLTDFYP [K2L], GRQAPRKKAQGKTQQNRKLTDFYP [K2R] is lower in protein stability index: 4.09 for the first, 3.07 for the second.

First: GNQAPRKKAQGKTQQNRKLTDFYP [K2N]
Second: GQQAPRKKAQGKTQQNRKLTDFYP [K2Q]
The protein stability index of the first is lower: 3.11 for the first, 3.4 for the second.

Going from GMQAPRKKAQGKTQQNRKLTDFYP [K2M] to GWQAPRKKAQGKTQQNRKLTDFYP [K2W], the protein stability index rises from 3.05 to 3.69.

Going from GTQAPRKKAQGKTQQNRKLTDFYP [K2T] to GKGAPRKKAQGKTQQNRKLTDFYP [Q3G], the protein stability index rises from 2.46 to 3.38.

Compared with GKRAPRKKAQGKTQQNRKLTDFYP [Q3R], GKPAPRKKAQGKTQQNRKLTDFYP [Q3P] is lower in protein stability index: 4.32 for the first, 2.01 for the second.

Compared with GKVAPRKKAQGKTQQNRKLTDFYP [Q3V], GKIAPRKKAQGKTQQNRKLTDFYP [Q3I] is higher in protein stability index: 2.28 for the first, 3.33 for the second.

First: GKYAPRKKAQGKTQQNRKLTDFYP [Q3Y]
Second: GKFAPRKKAQGKTQQNRKLTDFYP [Q3F]
The protein stability index of the first is higher: 3.58 for the first, 2.67 for the second.

Going from GKAAPRKKAQGKTQQNRKLTDFYP [Q3A] to GKHAPRKKAQGKTQQNRKLTDFYP [Q3H], the protein stability index rises from 2.63 to 3.8.

Compared with GKTAPRKKAQGKTQQNRKLTDFYP [Q3T], GKKAPRKKAQGKTQQNRKLTDFYP [Q3K] is higher in protein stability index: 2.93 for the first, 3.85 for the second.

First: GKDAPRKKAQGKTQQNRKLTDFYP [Q3D]
Second: GKQIPRKKAQGKTQQNRKLTDFYP [A4I]
The protein stability index of the first is higher: 3.41 for the first, 3.09 for the second.

Compared with GKQPPRKKAQGKTQQNRKLTDFYP [A4P], GKQVPRKKAQGKTQQNRKLTDFYP [A4V] is lower in protein stability index: 2.63 for the first, 1.83 for the second.

First: GKQNPRKKAQGKTQQNRKLTDFYP [A4N]
Second: GKQGPRKKAQGKTQQNRKLTDFYP [A4G]
The protein stability index of the first is lower: 3.23 for the first, 3.46 for the second.

Compared with GKQWPRKKAQGKTQQNRKLTDFYP [A4W], GKQSPRKKAQGKTQQNRKLTDFYP [A4S] is higher in protein stability index: 3.3 for the first, 4.29 for the second.

Going from GKQKPRKKAQGKTQQNRKLTDFYP [A4K] to GKQEPRKKAQGKTQQNRKLTDFYP [A4E], the protein stability index falls from 3.73 to 3.04.

Compared with GKQQPRKKAQGKTQQNRKLTDFYP [A4Q], GKQTPRKKAQGKTQQNRKLTDFYP [A4T] is lower in protein stability index: 2.77 for the first, 2.71 for the second.

Going from GKQRPRKKAQGKTQQNRKLTDFYP [A4R] to GKQFPRKKAQGKTQQNRKLTDFYP [A4F], the protein stability index falls from 3.15 to 3.05.

Going from GKQCPRKKAQGKTQQNRKLTDFYP [A4C] to GKQAGRKKAQGKTQQNRKLTDFYP [P5G], the protein stability index rises from 3.34 to 4.29.

Compared with GKQATRKKAQGKTQQNRKLTDFYP [P5T], GKQAMRKKAQGKTQQNRKLTDFYP [P5M] is higher in protein stability index: 1.74 for the first, 3.08 for the second.

Going from GKQASRKKAQGKTQQNRKLTDFYP [P5S] to GKQAERKKAQGKTQQNRKLTDFYP [P5E], the protein stability index falls from 4.65 to 3.58.

Compared with GKQALRKKAQGKTQQNRKLTDFYP [P5L], GKQAIRKKAQGKTQQNRKLTDFYP [P5I] is higher in protein stability index: 2.74 for the first, 3.36 for the second.

Compared with GKQAVRKKAQGKTQQNRKLTDFYP [P5V], GKQAKRKKAQGKTQQNRKLTDFYP [P5K] is higher in protein stability index: 3.18 for the first, 3.35 for the second.

Compared with GKQAQRKKAQGKTQQNRKLTDFYP [P5Q], GKQAARKKAQGKTQQNRKLTDFYP [P5A] is lower in protein stability index: 3.75 for the first, 2.52 for the second.

Going from GKQAFRKKAQGKTQQNRKLTDFYP [P5F] to GKQACRKKAQGKTQQNRKLTDFYP [P5C], the protein stability index falls from 2.95 to 1.99.

Going from GKQAHRKKAQGKTQQNRKLTDFYP [P5H] to EKQAPRKKAQGKTQQNRKLTDFYP [G1E], the protein stability index rises from 2.85 to 3.79.

Compared with HKQAPRKKAQGKTQQNRKLTDFYP [G1H], SKQAPRKKAQGKTQQNRKLTDFYP [G1S] is higher in protein stability index: 3 for the first, 3.17 for the second.

First: NKQAPRKKAQGKTQQNRKLTDFYP [G1N]
Second: VKQAPRKKAQGKTQQNRKLTDFYP [G1V]
The protein stability index of the first is lower: 2.88 for the first, 3.12 for the second.

Compared with PKQAPRKKAQGKTQQNRKLTDFYP [G1P], DKQAPRKKAQGKTQQNRKLTDFYP [G1D] is lower in protein stability index: 4.24 for the first, 2.68 for the second.

First: IKQAPRKKAQGKTQQNRKLTDFYP [G1I]
Second: QKQAPRKKAQGKTQQNRKLTDFYP [G1Q]
The protein stability index of the first is lower: 2.74 for the first, 3.8 for the second.

First: YKQAPRKKAQGKTQQNRKLTDFYP [G1Y]
Second: AKQAPRKKAQGKTQQNRKLTDFYP [G1A]
The protein stability index of the first is higher: 3.1 for the first, 3.04 for the second.

Going from FKQAPRKKAQGKTQQNRKLTDFYP [G1F] to MKQAPRKKAQGKTQQNRKLTDFYP [G1M], the protein stability index falls from 3.39 to 2.6.

Compared with CKQAPRKKAQGKTQQNRKLTDFYP [G1C], RKQAPRKKAQGKTQQNRKLTDFYP [G1R] is lower in protein stability index: 2.98 for the first, 2.94 for the second.

Compared with TKQAPRKKAQGKTQQNRKLTDFYP [G1T], LKQAPRKKAQGKTQQNRKLTDFYP [G1L] is lower in protein stability index: 3.2 for the first, 2.66 for the second.

For KKQAPRKKAQGKTQQNRKLTDFYP [G1K], the protein stability index was 3.75.
